B1: CPEB3 Ribozyme (parent)
chain: GGGGGCCACAGCAGAAGCGUUCACGUCGCGGCCCCUGUCAGAUUCUGGUGAAUCUGCGAAUUCUGCUGU

The variants in the data set derive from B1. As to the kind of experiment: self-cleavage, relative activity (ratio to wild type); higher = more cleavage; co-transcriptional.
Take GGGGGCCACAGCAGAAACGUUCACGUCGCGGCCCCUGUCAGAUUCUGGUGUAUCUGCGAAUUCUGCUGU [G17A A51U]: the self-cleavage amounted to 0.433.

In the case of GGGGGCCACAGCAGAUGCGUUCACGUCGCGGCCCCUGUCAGAUUCUGGUCAAUCUGCGAAUUCUGCUGU [A16U G50C], the self-cleavage amounted to 0.762.

Regarding GGGGGCCACAGCAGAUGCGUUCACGUCGCGGCCCCUGUCAGAUUCUGGUAAAUCUGCGAAUUCUGCUGU [A16U G50A], the self-cleavage was determined as 0.884.

Regarding GGGGGCCACAGCAGAUGCGUUCACGUCGCGGCCCCUGUCAGACUCUGGUGAAUCUGCGAAUUCUGCUGU [A16U U43C], the self-cleavage is 0.86.

Take GGGGGCCACAGCAGAUGCGUUCACGUCGCUGCCCCUGUCAGAUUCUGGUGAAUCUGCGAAUUCUGCUGU [A16U G30U]: the self-cleavage was found to be 0.261.

Take GGGGGCCACAGCAGAAACGUUUACGUCGCGGCCCCUGUCAGAUUCUGGUGAAUCUGCGAAUUCUGCUGU [G17A C22U]: the self-cleavage was found to be 0.148.

Turning to GGGGGCCACAGCAGAUGCGUUCACGUCGCGGCCCCUGUCAGAUUCUGGUGAAUCCGCGAAUUCUGCUGU [A16U U55C], the self-cleavage came out at 0.539.

On to GGGGGCCACAGCAGAUGCGUUCACGUCGCGGCCCCUGUCAGAUUCUGGUGAAUCAGCGAAUUCUGCUGU [A16U U55A], for which the self-cleavage stood at 0.624.

In the case of GGGGGCCACAGCAGAUGCGUUCACGUCGCGGCCCCUGUCAGAUUCUGGUGAAUCUGCGAAUUUUGCUGU [A16U C63U], the self-cleavage was 0.732.

GGGGGCCACAGCAGAUGCGUUCACGUCGCGGCCCCUGUCAGAUUCUGGUGAAUCUGCGAAUUAUGCUGU [A16U C63A]: the self-cleavage is 0.501.

GGGGGCCACAGCAGAUGCGUUCACGUUGCGGCCCCUGUCAGAUUCUGGUGAAUCUGCGAAUUCUGCUGU [A16U C27U]: the self-cleavage is 0.125.

For GGGGGCCACAGCAGAUGCGUUCACGUGGCGGCCCCUGUCAGAUUCUGGUGAAUCUGCGAAUUCUGCUGU [A16U C27G], the self-cleavage is 0.115.

With GGGGGCCACAGCAGAUGCGUUCACGUAGCGGCCCCUGUCAGAUUCUGGUGAAUCUGCGAAUUCUGCUGU [A16U C27A], the self-cleavage was 0.205.

In the case of GGGGGCCACAGCAGAUGCGUUCAUGUCGCGGCCCCUGUCAGAUUCUGGUGAAUCUGCGAAUUCUGCUGU [A16U C24U], the self-cleavage amounted to 0.337.

On to GGGGGCCACAGCAGAUGCGUUCAGGUCGCGGCCCCUGUCAGAUUCUGGUGAAUCUGCGAAUUCUGCUGU [A16U C24G], for which the self-cleavage was 0.141.

In the case of GGGGGCCACAGCAGAAACGUUCACGUCGCGGCCCCUGUCGGAUUCUGGUGAAUCUGCGAAUUCUGCUGU [G17A A40G], the self-cleavage was 0.344.

For GGGGGCCACAGCAGAUGCGUUCACGUCGCGGCCCCUGGCAGAUUCUGGUGAAUCUGCGAAUUCUGCUGU [A16U U38G], the self-cleavage is 0.272.

GGGGGCCACAGCAGAUGCGUUCACGUCGCGGCCCCUGUCAGAUUCUGUUGAAUCUGCGAAUUCUGCUGU [A16U G48U]: the self-cleavage was 0.907.

With GGGGGCCACAGCAGAUGCGUUCACGUCGCGCCCCCUGUCAGAUUCUGGUGAAUCUGCGAAUUCUGCUGU [A16U G31C], the self-cleavage was 0.147.

On to GGGGGCCACAGCAGAUGCGUUCACGUCGCGUCCCCUGUCAGAUUCUGGUGAAUCUGCGAAUUCUGCUGU [A16U G31U], for which the self-cleavage worked out at 0.295.

Regarding GGGGGCCACAGCAGAAACGUUCACGUCGCGGCCCCUGUCAGAUUUUGGUGAAUCUGCGAAUUCUGCUGU [G17A C45U], the self-cleavage is 0.463.

GGGGGCCACAGCAGAUGCGUUCACGGCGCGGCCCCUGUCAGAUUCUGGUGAAUCUGCGAAUUCUGCUGU [A16U U26G]: the self-cleavage stood at 0.461.

In the case of GGGGGCCACAGCAGAUGCGUUCACGUCGCGGCCCCUGUCAGAUUCUGGUGAAUCUGCGAAUUCUCCUGU [A16U G65C], the self-cleavage is 0.462.

For GGGGGCCACAGCAGAUGCGUUCACGUCGCGGCCCCUGUCAGAUUCUGGUGAAUCUGCGAAUUCUUCUGU [A16U G65U], the self-cleavage was determined as 0.4.

GGGGGCCACAGCAGAAACGUUCACGUCGCGGCACCUGUCAGAUUCUGGUGAAUCUGCGAAUUCUGCUGU [G17A C33A]: the self-cleavage was determined as 0.21.

Regarding GGGGGCCACAGCAGAAACGUUCACGUCGCGGCGCCUGUCAGAUUCUGGUGAAUCUGCGAAUUCUGCUGU [G17A C33G], the self-cleavage is 0.188.

Regarding GGGGGCCACAGCAGAUGCGGUCACGUCGCGGCCCCUGUCAGAUUCUGGUGAAUCUGCGAAUUCUGCUGU [A16U U20G], the self-cleavage was determined as 0.108.

On to GGGGGCCACAGCAGAUGCGUUCACGUCGCGGACCCUGUCAGAUUCUGGUGAAUCUGCGAAUUCUGCUGU [A16U C32A], for which the self-cleavage was found to be 0.491.

As to GGGGGCCACAGCAGAUGCGUUCACGUCGCGGCCCCUGUCAGAUUCUGGUGAAUCUGCGAAUUCUGCCGU [A16U U67C], the self-cleavage was found to be 0.856.

GGGGGCCACAGCAGAUGCGUUCACGUCGCGGCCCCUGUCAGAUUCUUGUGAAUCUGCGAAUUCUGCUGU [A16U G47U]: the self-cleavage stood at 0.879.

Turning to GGGGGCCACAGCAGAUGCGUUCACGUCGCGGCCCCUGUCAGAUUCUCGUGAAUCUGCGAAUUCUGCUGU [A16U G47C], the self-cleavage is 0.906.

On to GGGGGCCACAGCAGAUGCGUCCACGUCGCGGCCCCUGUCAGAUUCUGGUGAAUCUGCGAAUUCUGCUGU [A16U U21C], for which the self-cleavage amounted to 0.322.

GGGGGCCACAGCAGAUGCGUGCACGUCGCGGCCCCUGUCAGAUUCUGGUGAAUCUGCGAAUUCUGCUGU [A16U U21G]: the self-cleavage is 0.294.

For the variant GGGGGCCACAGCAGAUGCGUUCACGUCGCGGCCCCUGUCAGAUUCUGGUGAAUCUGCGAAUUCUGCUGG [A16U U69G], the self-cleavage is 0.972.

On to GGGGGCCACAGCAGAAACGUUCACGUCGCGGCCCCUGUCAGGUUCUGGUGAAUCUGCGAAUUCUGCUGU [G17A A42G], for which the self-cleavage was determined as 0.286.

Consider GGGGGCCACAGCAGAAACGUUCACGUAGCGGCCCCUGUCAGAUUCUGGUGAAUCUGCGAAUUCUGCUGU [G17A C27A], for which the self-cleavage was found to be 0.126.

As to GGGGGCCACAGCAGAAACGUUCACGUGGCGGCCCCUGUCAGAUUCUGGUGAAUCUGCGAAUUCUGCUGU [G17A C27G], the self-cleavage was 0.134.

In the case of GGGGGCCACAGCAGAAACGUUCACGUUGCGGCCCCUGUCAGAUUCUGGUGAAUCUGCGAAUUCUGCUGU [G17A C27U], the self-cleavage was 0.172.

With GGGGGCCACAGCAGAAACGUUCACGUCGCGGCCCCUGUCAGAUUCUGGUGACUCUGCGAAUUCUGCUGU [G17A A52C], the self-cleavage was found to be 0.431.

(Values after the RNAGym collection of RNA variant scans (doi:10.7554/elife.80360).)
